# Results: patent US8420776B2, “Ube2G2 binding domain in the ubiquitin ligase gp78 and methods of use thereof” (The United States of America, as Represented by the …, priority 2004, dated 2013)
# B1: AO7: GST fusion of the RING finger and surrounding regions of the unrelated E3 enzyme AO7 (protein)
# chain: QIHKISQALGHVAKEGLGTAMLYELIEKGKEILTDNNIPHGQCVICLYGFQEKEAFTKTPCYHYFHCHCLARYIQHMEQELTTQEQEQERQHVVTKQKAVGVQCPVCREPLVYDLASLKAAPEPQQPMELYQPSAESLRQQEELKLLYQRQQEKGGIIDLEAERNRYF
# modifications: left off: a dimerising Fc or GST
# B2: gp78E2-m2: full-length gp78 with residues 579-584 mutated (label E2-m2 in b279) (protein)
# chain: MPLLFLERFPWPSLRTYTGLSGLALLGTIISAYRALSQPEAGPGEPDQLTASLQPEPPAPARPSAGGPRARDVAQYLLSDSLFVWVLVNTACCVLMLVAKLIQCIVFGPLRVSERQHLKDKFWNFIFYKFIFIFGVLNVQTVEEVVMWCLWFAGLVFLHLMVQLCKDRFEYLSFSPTTPMSSHGRVLSLLVAMLLSCCGLAAVCSITGYTHGMHTLAFMAAESLLVTVRTAHVILRYVIHLWDLNHEGTWEGKGTYVYYTDFVMELTLLSLDLMHHIHMLLFGNIWLSMASLVIFMQLRYLFHEVQRRIRRHKNYLRVVGNMEARFAVATPEELAVNNDDCAICWDSMQAARKLPCGHLFHNSCLRSWLEQDTSCPTCRMSLNIADNNRVREEHQGENLDENLVPVAAAEGRPRLNQHNHFFHFDGSRIASWLPSFSVEVMHTTNILGITQASNSQLNAMAHQIQEMFPQVPYHLVLQDLQLTRSVEITTDNILEGRIQVPFPTQRSDSIRPALNSPVERPSSDQEEGETSAQTERVPLDLSPRLEETLDFGEVEVEPSEVEDFEARGSRFSKSADERAAAGGGRKDELLQQARKRFLNKSSEDDAASESFLPLEGASSDPVTLRRRMLAAAAERRLQKQQTS
# B3: gp78Cue-m1, 2: full-length gp78 with mutations in the Cue domain (label Cue-m1, 2 in b279) (protein)
# chain: MPLLFLERFPWPSLRTYTGLSGLALLGTIISAYRALSQPEAGPGEPDQLTASLQPEPPAPARPSAGGPRARDVAQYLLSDSLFVWVLVNTACCVLMLVAKLIQCIVFGPLRVSERQHLKDKFWNFIFYKFIFIFGVLNVQTVEEVVMWCLWFAGLVFLHLMVQLCKDRFEYLSFSPTTPMSSHGRVLSLLVAMLLSCCGLAAVCSITGYTHGMHTLAFMAAESLLVTVRTAHVILRYVIHLWDLNHEGTWEGKGTYVYYTDFVMELTLLSLDLMHHIHMLLFGNIWLSMASLVIFMQLRYLFHEVQRRIRRHKNYLRVVGNMEARFAVATPEELAVNNDDCAICWDSMQAARKLPCGHLFHNSCLRSWLEQDTSCPTCRMSLNIADNNRVREEHQGENLDENLVPVAAAEGRPRLNQHNHFFHFDGSRIASWLPSFSVEVMHTTNILGITQASNSQLNAMAHQIQEGGRQVPYHLRLQVDQLTRSVEITTDNILEGRIQVPFPTQRSDSIRPALNSPVERPSSDQEEGETSAQTERVPLDLSPRLEETLDFGEVEVEPSEVEDFEARGSRFSKSADERQRMLVQRKDELLQQARKRFLNKSSEDDAASESFLPLEGASSDPVTLRRRMLAAAAERRLQKQQTS
# Experiments:
# [1] = target: T1, UbcH5B (Homo sapiens, UniProt P62837); assay: GST pull-down binding of in vitro translated UbcH5B; conditions: GST fusion pull-down
# T1 construct: made in house; host or cells: in vitro translation in wheat germ
# Experimental: GST fusions were purified from E. Coli. Binding was carried out using equi-molar amount of fusion proteins measured by Commassie blue staining. Generally, 20 picomoles/sample were used. In vitro translated E2 was generated by coupled transcription and translation using 35S methionine in either wheat germ or rabbit reticulocyte lysate. Binding assays using in vitro translated E2 was carried out by incubating GST protein pre-bound to Glutathione-sepharose 4B with […] of ^35S-methionine labeled E2 in binding buffer (25 mM Tris-HCl, pH 7.4; 50 mM NaCl, 5 mM DTT; and 0.5% NP-40) overnight at 4° C. Beads were washed with binding buffer and resolved by SDS-PAGE under reducing conditions. Analysis was by Storm PhosphoImager (Applied Biosystems, Foster City, Calif.). Direct binding assays used wild type His6-MmUbc7 (His6-Ube2G2) and Glutathione-sepharose bound GST fusions. Beadbound GST protein was incubated with 100 ng purified His6-MmUbc7 in binding buffer and washed and eluted as above. After transfer to Hybond-P (Amersham Biosciences) binding was assessed with anti-His6 followed by Enhanced Chemiluminescence ECL; Pierce). Ubiquitin binding studies were performed with binding and washing as above using 1 μg K48 tetra-ubiquitin produced as described (Piotrowski et al., 1997). Detection was by anti-ubiquitin immunoblotting. […]
# [2] = target: T2, Myc-Ube2G2 (Mus musculus, UniProt P60605); assay: Co-immunoprecipitation with co-expressed Myc-Ube2G2 in cells; type: cell-based; conditions: anti-Myc IP, anti-gp78 IB; MG132 8 hr
# T2 construct: expressed in transfected cells; host or cells: HEK 293T
# T2 sequence (P60605 1-165): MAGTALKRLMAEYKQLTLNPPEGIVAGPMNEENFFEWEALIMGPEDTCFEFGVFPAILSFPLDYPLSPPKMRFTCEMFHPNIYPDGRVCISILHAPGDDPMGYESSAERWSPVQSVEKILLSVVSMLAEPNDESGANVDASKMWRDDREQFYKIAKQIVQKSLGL
# Experimental: (§1) Transfections of HT1080, NIH 3T3 and HEK 293T cells were carried out ˜24 hr after plating using Polyfect (Qiagen, Valencia, Calif.) and cells harvested after ˜48 hr. J558 cells were transfected by electroporation using Bio-rad GENE pulser II at settings of 250 v, 950uF. Vector without insert was used to equalize total plasmid. In most experiments 0.15 μg of pEGFP-C1 served as an internal control. For experiments not involving immunoprecipitation, 6×10^5 cells were plated in 6 well plates and cell lysis was with Mammalian Protein Extraction Reagent (Pierce). For immunoprecipitation, 2.4×10^6 cells were seeded in 100 mm dishes and cells were lysed in RIPA buffer (1×PBS, 1% Nonidet P40. 0.5% sodium deoxycholate, 0.1% SDS). Lysis buffers were supplemented with Protease Inhibitor Cocktail (Sigma) and 10 mM iodoacetamide. Supernatants were analyzed after a 10,000×g centrifugation using standard techniques for immunoprecipitation, SDS-PAGE, immunoblotting and ECL. Treatment of cells with MG132 (Sigma) was at 50 μM for eight hr. Cycloheximnide was used at 50 μg/ml. All cells were collected at the end of the six hr chase.
# FIG. 5 depicts the results of immunoprecipitation of Ube2G2 (MmUbc7) from HEK 293T cells co-transfected with a plasmid encoding myc-tagged MmUbc7/Ube2G2 together with s plasmid encoding various forms of gp78. HEK 293T cells were transfected with a plasmid encoding myc-tagged MmUbc7/Ube2G2 together with plasmids encoding various forms of gp78. After 48 hours, cells were harvested and co-immuntoprecipitated with an anti-Myc tage. Anti-gp78 was used for detection. “R2M” indicates a mutation of two crucial residues in the RING finger. “T” indicates C terminal truncations at the indicated amino acids. ΔB is the mutation indicated above in FIG. 4 in the context of the full length gp78 and “Cue12M” indicates mutations in the Cue domain of gp78.
# To confirm the significance of the Ube2G2 binding site in cells, a variety of mutations and truncations of full-length gp78 were tested for binding of co-expressed Myc-Ube2G2 (FIG. 19A). Cells were treated with the proteasome inhibitor MG132 in an attempt to equalize levels of the various forms of gp78.
# [3] = tested on: ERAD substrate CD3-δ; assay: CD3-δ level in co-transfected cells by immunoblotting; type: cell-based; conditions: co-transfection with CD3-δ; immunoblot
# Experimental: as §1
# FIG. 7 depicts the stabilization of CD3-δ protein in cells transfected with the G2BD, but not with the G2BD with amino acids 579-584 (of SEQ ID NO:2) mutated. HEK 293T cells were transfected with the ERAD substrate CD3-δ along with the indicated GFP fusions of gp78. The left and right sides are two separate experiments.
# To test this, GFP fusions of either a minimal E2 binding domain (GFP-574-611) or a more extended region that includes the C-terminus of gp78 (GFP-574-643) were evaluated (FIG. 21A). […] To assess this further, the C-terminal region of gp78 was fused to the eight amino acid Flag tag. […] Mdm2 is a RING finger E3 for both itself and p53 that is neither an ERAD substrate nor known to utilize Ube2G2 as an E2. […] To establish with certainty that the effect observed with expression of the Ube2G2 binding site is a consequence of binding endogenous E2, and not due to other unanticipated effects, cells were co-transfected with increasing amounts of Ube2G2 (FIG. 21C, lanes 3 and 4). […] These findings clearly establish that the isolated E2 binding site has the potential to markedly alter ERAD of CD3-δ. To ensure the effect observed was not peculiar to one substrate, TCR-α was evaluated (FIG. 21D).
# [4] = tested on: gp78; assay: gp78 level in transfected cells by immunoblotting; type: cell-based; conditions: full-length gp78 forms; immunoblot
# Experimental: as §1, with “All cells were collected at the end of the six hr chase.” left out
# (§2) gp78 is degraded in a proteasome-dependent manner, and deletion of the entire cytoplasmic domain results in its stabilization. […] To determine the significance of the RING finger, Cue domain and Ube2G2 binding site on gp78 stability, mutations of each were evaluated within full-length gp78. […]
# [5] = tested on: gp78; assay: gp78 ubiquitylation in transfected cells (IP anti-gp78, IB anti-ubiquitin); type: cell-based; conditions: 50 μM MG132 eight hours
# Experimental: FIGS. 20A-20E depict the requirement of multiple domains of gp78 to target itself and a heterologous ERAD substrate. (FIG. 20A) Cells were co-transfected with the indicated forms of full length gp78 together with CD3-δ and lysates analyzed by IB. (B) Cells were transfected with wild type and mutant gp78 plasmids as indicated. Samples were treated with 50 μM MG132 for eight hours, lysates IP'ed with anti-gp78 followed by […] with either antiubiquitin (upper) or anti-gp78 (lower). Arrow in upper panel indicates migration of unmodified gp78. (FIGS. 20C and 20D) Cells were co-transfected with HA-CD3-δ and wild type (WT) or mutant forms of gp78. Cells were treated with cycloheximide (CHX) as indicated. (FIG. 20E) Graphic representation of CD3-δ levels from FIGS. 20C and 20D (fall length gp78 transfections only), Cue-m1, 2 is the average of data shown in FIGS. 20C and 20D.
# as §1, with “Lysis buffers were supplemented with Protease Inhibitor Cocktail (Sigma) and 10 mM iodoacetamide.” left out, “Treatment of cells with MG132 (Sigma) was at 50 μM for eight hr. Cycloheximnide was used at 50 μg/ml. All cells were collected at the end of the six hr chase.” left out
# as §2
# T1 sequence (P62837 whole entry, the tested form may be a part): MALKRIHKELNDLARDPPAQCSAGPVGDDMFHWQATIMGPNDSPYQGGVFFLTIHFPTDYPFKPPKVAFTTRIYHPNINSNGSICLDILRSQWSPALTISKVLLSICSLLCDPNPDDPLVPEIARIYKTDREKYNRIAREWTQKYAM
molecule,measurement,setting,value
B1,binding to in vitro translated UbcH5B,[1],did bind
B2,E2 association of full-length gp78 forms with co-expressed Myc-Ube2G2,[2],loss of E2 binding
same,effect on CD3-δ level (stabilization),[3],neither significantly stabilized CD3-δ nor enhanced its loss
same,gp78 level compared to wild type,[4],increased gp78
same,gp78 ubiquitylation (ubiquitin immunoreactivity),[5],dramatic decrease in ubiquitin immunoreactivity
B3,effect on CD3-δ level (stabilization),[3],marked increase in CD3-δ
same,gp78 level compared to wild type,[4],increased gp78
same,gp78 ubiquitylation (ubiquitin immunoreactivity),[5],dramatic decrease in ubiquitin immunoreactivity
